Measurements: article PMC9464622, “The collectin SP-A and its trimeric recombinant fragment protect alveolar epithelial cells from the cytotoxic and proinflammatory effects of human cathelicidin in vitro” (Frontiers in Immunology, 2022)

Tests used:
[1] = molecular target: Recombinant trimeric fragment of human SP-A1 (rfhSP-A) (human); assay: other fluorescence titration; intrinsic tryptophan fluorescence of SP-A (75 nM) or rfhSP-A (52 nM) titrated with LL-37; 25°C, 5 mM Tris-HCl pH 7.4, without NaCl; excitation 295 nm; fit to the Hill equation; apparent KD
[2] = molecular target: Recombinant trimeric fragment of human SP-A1 (rfhSP-A) (human); assay: other fluorescence titration; intrinsic tryptophan fluorescence of SP-A (75 nM) or rfhSP-A (52 nM) titrated with LL-37; 25°C, 5 mM Tris-HCl pH 7.4, with 150 mM NaCl; excitation 295 nm; fit to the Hill equation; apparent KD
[3] = molecular target: Human surfactant protein A (native SP-A) (human) (UniProt Q8IWL2); assay: as above
[4] = molecular target: Human surfactant protein A (native SP-A) (human) (UniProt Q8IWL2); assay: native gel or EMSA + AUC + other: electron microscopy; degree of oligomerization of isolated SP-A: electrophoresis under nondenaturing conditions, electron microscopy and analytical ultracentrifugation, as reported elsewhere (refs 28, 29)

| Kd [1] | Kd [2] | Kd [3] | stoichiometry N [4] | Substance |
| --- | --- | --- | --- | --- |
| 73.5 pM | 1200 pM | 450 pM | – | Human cathelicidin LL-37 (peptide) |
| – | – | – | > 18 subunits | Human surfactant protein A (native SP-A) (from UniProt Q8IWL2 21-248) (natural protein) |
